Laboratory results published in the DeepSol protein solubility set.

Assay: soluble on expression in E. coli; label from the status in PepcDB or PDB records

Soluble on expression in E. coli, not soluble:
MGSDKIHHHHHHMKEVVKLVLLGERQNSLNLSLYFNKYPPTIIYPEVLEDRNKKLASPSGSQRKISLLVLNQGVLQFNKIKETIEKSLPIETKVKLPQKAYELYKKYYQDYTDMLNSLHAITGKFKTQSRLVVGLGDESVYETSIRLLRNYGVPYIPGSAIKGVTRHLTYYVLAEFINEGNDFYKRAKTVQDAFMKGDPKEILSNAKVPERCSRLCKEFLRIFGEKKVPEIIDELIRIFGTQKKEGEVVFFDAIPIAEEIADKPILELDIMNPHYGPYYQSGEKNVPPPGDWYDPIPIFFLTVPKDVPFLVAVGGRDRELTEKAFSLVKLALRDLGVGAKTSLGYGRLVEYV
MGSDKIHHHHHHMKFKERLQYLRLEKELSEIQLSKKVGISESVIRLYERGKLRIDLEHLHKLAAFFDVTPGLLLGTAFPHLPPEEALESYRVVNKLLEIRNEERKDEEDSPLFIDTLAQLAAESNKSDNKASNRQATIRAGVVAVYHKIVSAHSEANQEFIEDYWPVNTTVMQIYGHDISNYFYLRVHGDFMEPTIKNQSIVLAKRQVQVDNNDLAVVLYEQSPAAVKRLNRYEDKIILLCDNKAHPAQICEQEKCIILGKVLWKPK
MGSDKIHHHHHHMKFTDIEYFDKLSELESFSKTAIFFNVSQPTISFAIQRLENEMKKTLINRNQSHGEISLTEAGKVFEKHAKKILQEVVAAHEEIDRMNQPTIEFGLPQIIGNYYLPKLVKHFVGNPFFQNVATNEAGSNLLLGALKNRRLDLAIISSVEPVKIEGLETIEIDRKKYSIVVNKDNPLAKQKKVSFEDLADEKFVSLKEGNVHPIAFRKLEETYNVYPKIIYETPDINILKKMIAEKTGIGFIVEIAVEKQDNLATLELSNEKVPEFIISFVYKKDLQIPGIKRIVEELRNNSVFDQDR
MGSDKIHHHHHHMKGISHRIAIPLILEVGNNKIYNIGQIIKKGNFKRVSLYFGEGIYELFGETIEKSIKSSNIEIEAVETVKNIDFDEIGTNAFKIPAEVDALIGIGGGKAIDAVKYMAFLRKLPFISVPTSTSNDGFSSPVASLLINGKRTSVPAKTPDGIVVDIDVIKGSPEKFIYSGIGDLVSNITALYDWKFEEENHKSIIDDFAVMISKKSVNSFVRTDFKSIKDEVFLKELVDSLTMNGIAMEIAGNSSPASGAEHLISHALDKFLPNPQLHGIQVGVATYIMSKVHKHREERIKKILSDTGFFNYVKGLNMKKSDFKRAISEAHLIKPARYTYLHVEKNCETAKEIVDTDEILRNILV
MGSDKIHHHHHHMKHIHIIGIGGTFMGGIAAIAKEAGFEVSGCDAKMYPPMSTQLEALGIGVYEGFDTAQLDEFKADVYVIGNVAKRGMDVVEAILNRGLPYISGPQWLAENVLHHHWVLGVAGTHGKTTTASMLAWVLEYAGLAPGFLIGGVPENFSVSARLPQTPRQDPNSQSPFFVIEADEYDTAFFDKRSKFVHYRPRTAVLNNLEFDHADIFADLGAIQTQFHHLVRTVPSEGLIVCNGRQQSLQDTLDKGCWTPVEKFGTEHGWQAGEANADGSFDVLLDGKKAGHVAWSLMGGHNRMNALAVIAAARHAGVDIQTACEALSTFKNVKRRMEIKGTANGITVYDDFAHHPTAIETTIQGLRQRVGGARILAVLEPRSNTMKLGTMKAALPASLKEADQVFCYAGGADWDVAEALAPLGGRLHVGKDFDAFVAEIVKNAEAGDHILVMSNGGFGGIHTKLLDALR
MGSDKIHHHHHHMKIDRLIGIITILLQKERATIPQLAERFEVSCRTIQRDIDAIGQAGIPIVSRQGYGGGLSIADGYKLDKTVLTKKELQAILTGIRSIDSISKTTYGQTLIEKFANGKAAVLAEQDMILIDLASWYQDSLSDKIEQLRQAIFNREKVFFVYYSDKGESERLIEPYLILFKWAAWYVYGYCLTKNEYRLFKLNRLWKLKNTNLTYIPRNIPEGKLEFERYFQTEEIRLTALFDARAKYRLIEEYGPECFTVSEPDKLLFQRSFSNPEYLLQWLLSFGDRVRVIEPPELKANIQEHAKNMLRQDD
MGSDKIHHHHHHMKILYIITGLPTGGAEMMLYKLLSQINQERFEPIVVSLMDRGTLGDRIEALGIPVHTIGMNRGGIPMPVDVWRLVHLVDRLQPDIIQGWMYHGNLAAQFASFLNGNKIPIVWSIHYSIDSLESDKKMTVAIIKFSAYISRLPKQVLFVSQNSKLQHEALGYSSKNSCIIPNGFDTISFSPSLTERVDVRSELSLPHESLLIGLICRYHPMKDHANFIQAAALFLKEHPNINFLMIGQGVDRDNPTLNKLIKELGIGDRISLLGERKDIPRLITSLDIFTSASAYGEAFPLVIGEAMSCGIPCVVTDVGDSGWIVGNTGKVIPPRNPQMLADAWKELIALGEEGRNILGKAARARITEDFALNSVVAKYELVYEKILSNMST
